One block for each binder: values may come before it.
Target: Orai1-CFP, Q96D31
Assay: E-FRET in cells (Orai1-CFP / STIM1-YFP)
Conditions: chain shown with the change, HEK-S1S2dKO-O1CFP cells, store-depletion with 2.5 µM ionomycin, parent: est. 0.11, read off a plot

Chain of Orai1-CFP, Q96D31 (Q96D31 whole entry): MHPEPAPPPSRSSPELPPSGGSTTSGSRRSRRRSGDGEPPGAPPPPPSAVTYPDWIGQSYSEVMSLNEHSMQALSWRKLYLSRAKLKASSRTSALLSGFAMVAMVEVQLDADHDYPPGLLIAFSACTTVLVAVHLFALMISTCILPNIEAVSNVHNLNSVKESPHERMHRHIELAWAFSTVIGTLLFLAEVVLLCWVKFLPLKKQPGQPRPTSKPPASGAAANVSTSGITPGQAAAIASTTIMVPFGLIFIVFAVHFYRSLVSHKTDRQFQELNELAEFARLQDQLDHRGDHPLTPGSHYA

response (n = 100 (WT n = 579)): 0.07
B2: STIM1-YFP-WT, Q13586 H398del (protein)
chain: LSHSHSEKATGTSSGANSEESTAAEFCRIDKPLCHSEDEKLSFEAVRNIHKLMDDDANGDVDVEESDEFLREDLNYHDPTVKHSTFHGEDKLISVEDLWKAWKSSEVYNWTVDEVVQWLITYVELPQYEETFRKLQLSGHAMPRLAVTNTTMTGTVLKMTDRSHRQKLQLKALDTVLFGPPLLTRHNHLKDFMLVVSIVIGVGGCWFAYIQNRYSKEHMKKMMKDLEGLHRAEQSLHDLQERLHKAQEEHRTVEVEKVHLEKKLRDEINLAKQEAQRLKELREGTENERSRQKYAEEELEQVREALRKAEKELESHSSWYAPEALQKWLQLTHEVEVQYYNIKKQNAEKQLLVAKEGAEKIKKKRNTLFGTFHVASSSLDDVDHKILTAKQALSEVTAALRERLHRWQQIEILCGFQIVNNPGIHSLVAALNIDPSWMGSTRPNPAHFIMTDDVDDMDEEIVSPLSMQSPSLQSSVRQRLTEPQHGLGSQRDLTHSDSESSLHMSDRQRVAPKPPQMSRAADEALNAMTSNGSHRLIEGVHPGSLVEKLPDSPALAKKALLALNHGLDKAHSLMELSPSAPPGGSPHLDSSRSHSPSSPDPDTPSPVGDSRALQASRNTRIPHLAGKKAVAEEDNGSIGEETDSSPGRKKFPLKIFKKPLKK

response (n = 107 (WT n = 579)): 0.034
B5: STIM1-YFP-WT, Q13586 V396del; A397del (protein)
chain: LSHSHSEKATGTSSGANSEESTAAEFCRIDKPLCHSEDEKLSFEAVRNIHKLMDDDANGDVDVEESDEFLREDLNYHDPTVKHSTFHGEDKLISVEDLWKAWKSSEVYNWTVDEVVQWLITYVELPQYEETFRKLQLSGHAMPRLAVTNTTMTGTVLKMTDRSHRQKLQLKALDTVLFGPPLLTRHNHLKDFMLVVSIVIGVGGCWFAYIQNRYSKEHMKKMMKDLEGLHRAEQSLHDLQERLHKAQEEHRTVEVEKVHLEKKLRDEINLAKQEAQRLKELREGTENERSRQKYAEEELEQVREALRKAEKELESHSSWYAPEALQKWLQLTHEVEVQYYNIKKQNAEKQLLVAKEGAEKIKKKRNTLFGTFHHSSSLDDVDHKILTAKQALSEVTAALRERLHRWQQIEILCGFQIVNNPGIHSLVAALNIDPSWMGSTRPNPAHFIMTDDVDDMDEEIVSPLSMQSPSLQSSVRQRLTEPQHGLGSQRDLTHSDSESSLHMSDRQRVAPKPPQMSRAADEALNAMTSNGSHRLIEGVHPGSLVEKLPDSPALAKKALLALNHGLDKAHSLMELSPSAPPGGSPHLDSSRSHSPSSPDPDTPSPVGDSRALQASRNTRIPHLAGKKAVAEEDNGSIGEETDSSPGRKKFPLKIFKKPLKK

Further lines, the binder ahead of its results:

B1: STIM1-YFP-WT, Q13586 F394del (protein)
chain: LSHSHSEKATGTSSGANSEESTAAEFCRIDKPLCHSEDEKLSFEAVRNIHKLMDDDANGDVDVEESDEFLREDLNYHDPTVKHSTFHGEDKLISVEDLWKAWKSSEVYNWTVDEVVQWLITYVELPQYEETFRKLQLSGHAMPRLAVTNTTMTGTVLKMTDRSHRQKLQLKALDTVLFGPPLLTRHNHLKDFMLVVSIVIGVGGCWFAYIQNRYSKEHMKKMMKDLEGLHRAEQSLHDLQERLHKAQEEHRTVEVEKVHLEKKLRDEINLAKQEAQRLKELREGTENERSRQKYAEEELEQVREALRKAEKELESHSSWYAPEALQKWLQLTHEVEVQYYNIKKQNAEKQLLVAKEGAEKIKKKRNTLFGTHVAHSSSLDDVDHKILTAKQALSEVTAALRERLHRWQQIEILCGFQIVNNPGIHSLVAALNIDPSWMGSTRPNPAHFIMTDDVDDMDEEIVSPLSMQSPSLQSSVRQRLTEPQHGLGSQRDLTHSDSESSLHMSDRQRVAPKPPQMSRAADEALNAMTSNGSHRLIEGVHPGSLVEKLPDSPALAKKALLALNHGLDKAHSLMELSPSAPPGGSPHLDSSRSHSPSSPDPDTPSPVGDSRALQASRNTRIPHLAGKKAVAEEDNGSIGEETDSSPGRKKFPLKIFKKPLKK
response (n = 106 (WT n = 579)): 0.003

B3: STIM1-YFP-WT, Q13586 H395del (protein)
chain: LSHSHSEKATGTSSGANSEESTAAEFCRIDKPLCHSEDEKLSFEAVRNIHKLMDDDANGDVDVEESDEFLREDLNYHDPTVKHSTFHGEDKLISVEDLWKAWKSSEVYNWTVDEVVQWLITYVELPQYEETFRKLQLSGHAMPRLAVTNTTMTGTVLKMTDRSHRQKLQLKALDTVLFGPPLLTRHNHLKDFMLVVSIVIGVGGCWFAYIQNRYSKEHMKKMMKDLEGLHRAEQSLHDLQERLHKAQEEHRTVEVEKVHLEKKLRDEINLAKQEAQRLKELREGTENERSRQKYAEEELEQVREALRKAEKELESHSSWYAPEALQKWLQLTHEVEVQYYNIKKQNAEKQLLVAKEGAEKIKKKRNTLFGTFVAHSSSLDDVDHKILTAKQALSEVTAALRERLHRWQQIEILCGFQIVNNPGIHSLVAALNIDPSWMGSTRPNPAHFIMTDDVDDMDEEIVSPLSMQSPSLQSSVRQRLTEPQHGLGSQRDLTHSDSESSLHMSDRQRVAPKPPQMSRAADEALNAMTSNGSHRLIEGVHPGSLVEKLPDSPALAKKALLALNHGLDKAHSLMELSPSAPPGGSPHLDSSRSHSPSSPDPDTPSPVGDSRALQASRNTRIPHLAGKKAVAEEDNGSIGEETDSSPGRKKFPLKIFKKPLKK
response (n = 207 (WT n = 579)): 0.082

B4: STIM1-YFP-WT, Q13586 H395del; V396del (protein)
chain: LSHSHSEKATGTSSGANSEESTAAEFCRIDKPLCHSEDEKLSFEAVRNIHKLMDDDANGDVDVEESDEFLREDLNYHDPTVKHSTFHGEDKLISVEDLWKAWKSSEVYNWTVDEVVQWLITYVELPQYEETFRKLQLSGHAMPRLAVTNTTMTGTVLKMTDRSHRQKLQLKALDTVLFGPPLLTRHNHLKDFMLVVSIVIGVGGCWFAYIQNRYSKEHMKKMMKDLEGLHRAEQSLHDLQERLHKAQEEHRTVEVEKVHLEKKLRDEINLAKQEAQRLKELREGTENERSRQKYAEEELEQVREALRKAEKELESHSSWYAPEALQKWLQLTHEVEVQYYNIKKQNAEKQLLVAKEGAEKIKKKRNTLFGTFAHSSSLDDVDHKILTAKQALSEVTAALRERLHRWQQIEILCGFQIVNNPGIHSLVAALNIDPSWMGSTRPNPAHFIMTDDVDDMDEEIVSPLSMQSPSLQSSVRQRLTEPQHGLGSQRDLTHSDSESSLHMSDRQRVAPKPPQMSRAADEALNAMTSNGSHRLIEGVHPGSLVEKLPDSPALAKKALLALNHGLDKAHSLMELSPSAPPGGSPHLDSSRSHSPSSPDPDTPSPVGDSRALQASRNTRIPHLAGKKAVAEEDNGSIGEETDSSPGRKKFPLKIFKKPLKK
response (n = 87 (WT n = 579)): 0.074

Reference: paper PMC10616141
